Results taken from paper PMC12343972 (Nature Communications, 2025).
Substitutions are numbered along the chain they refer to.

Tests used:
Rad50-3KA = biological target: T1, Rad50-3KA (Saccharomyces cerevisiae, UniProt P12753 1-1312, K192A;K195A;K196A); assay: EMSA
T1 sequence: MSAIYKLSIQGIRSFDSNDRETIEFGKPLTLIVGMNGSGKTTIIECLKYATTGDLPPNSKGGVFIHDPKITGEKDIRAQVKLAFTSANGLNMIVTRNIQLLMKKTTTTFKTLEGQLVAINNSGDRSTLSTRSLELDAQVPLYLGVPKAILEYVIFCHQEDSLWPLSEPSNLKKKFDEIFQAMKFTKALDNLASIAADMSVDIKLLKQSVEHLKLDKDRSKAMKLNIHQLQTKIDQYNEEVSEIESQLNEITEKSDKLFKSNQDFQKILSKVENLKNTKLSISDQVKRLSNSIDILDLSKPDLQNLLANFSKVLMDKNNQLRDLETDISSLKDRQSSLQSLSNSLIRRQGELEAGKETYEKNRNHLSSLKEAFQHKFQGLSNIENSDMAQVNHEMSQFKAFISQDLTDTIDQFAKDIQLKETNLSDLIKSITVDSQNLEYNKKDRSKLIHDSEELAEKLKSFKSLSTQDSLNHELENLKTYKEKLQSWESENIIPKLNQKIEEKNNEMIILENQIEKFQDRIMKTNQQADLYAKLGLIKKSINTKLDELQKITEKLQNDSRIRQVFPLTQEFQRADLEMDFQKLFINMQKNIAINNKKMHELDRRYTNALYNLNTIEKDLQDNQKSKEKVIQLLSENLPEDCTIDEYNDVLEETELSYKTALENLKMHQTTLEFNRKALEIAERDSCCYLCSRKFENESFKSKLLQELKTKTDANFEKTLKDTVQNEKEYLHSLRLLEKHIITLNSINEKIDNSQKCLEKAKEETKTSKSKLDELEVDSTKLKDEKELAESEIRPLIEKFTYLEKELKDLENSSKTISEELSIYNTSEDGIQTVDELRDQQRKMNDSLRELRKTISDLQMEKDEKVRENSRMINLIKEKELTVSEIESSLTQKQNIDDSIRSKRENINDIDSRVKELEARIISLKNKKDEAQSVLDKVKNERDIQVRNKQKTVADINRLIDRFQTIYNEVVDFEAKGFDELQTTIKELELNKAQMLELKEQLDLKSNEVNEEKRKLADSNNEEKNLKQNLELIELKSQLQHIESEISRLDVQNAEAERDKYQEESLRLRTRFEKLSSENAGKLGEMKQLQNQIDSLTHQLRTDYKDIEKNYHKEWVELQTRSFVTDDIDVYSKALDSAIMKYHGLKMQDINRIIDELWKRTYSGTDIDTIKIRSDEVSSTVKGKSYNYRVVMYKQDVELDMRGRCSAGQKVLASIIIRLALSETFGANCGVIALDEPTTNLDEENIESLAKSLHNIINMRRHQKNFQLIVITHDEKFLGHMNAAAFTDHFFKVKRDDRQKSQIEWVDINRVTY

Rad50-K173A K174A = biological target: T2, Rad50-K173A K174A (Saccharomyces cerevisiae, UniProt P12753 1-1312, K173A;K174A); assay: EMSA
T2 sequence: T1 sequence with K173A, K174A, A192K, A195K, A196K

B1: 83-mer dsDNA (EMSA) (dsDNA)
DNA 1: TTGATAAGAGGTCATTTTTGCGGATGGCTTAGAGCTTAATTGCTGAATCTGGTGCTGTAGCTCAACATGTTTTAAATATGCAA
DNA 2: TTGCATATTTAAAACATGTTGAGCTACAGCACCAGATTCAGCAATTAAGCTCTAAGCCATCCGCAAAAATGACCTCTTATCAA
binding result (Rad50-3KA): binds
binding result (Rad50-K173A K174A): binds
